Assay results published in patent US20240254203A1.

Biological target: SARS COV-1 spike protein (SARS COV-1) (UniProt P59594)
Test: cell-based or functional assay

soluble 80R scFv, sequence (VH): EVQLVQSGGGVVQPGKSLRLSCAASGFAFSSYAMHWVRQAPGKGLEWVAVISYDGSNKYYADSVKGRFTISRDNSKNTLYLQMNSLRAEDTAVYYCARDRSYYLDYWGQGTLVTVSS
soluble 80R scFv, sequence (VL): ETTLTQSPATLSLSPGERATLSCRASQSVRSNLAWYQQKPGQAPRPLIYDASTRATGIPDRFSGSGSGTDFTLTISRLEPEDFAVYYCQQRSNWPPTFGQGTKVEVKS

With soluble 80R scFv the IC50, neutralization of SARS COV-1 by the soluble scFv was 7.43 nM.
